± gives the standard deviation of the averaged measurements.
B1: library; a variant is named by its letters at N, in order (parent)
chain: GCUGUCACCGGUGUAUUACCCUAGUGGUCGACCGGUCUGAUGAGUCUNNNNNNAGACGAAACAGC

Columns and labels:
hypoxanthine [1] = variants of: B1; assay: FACS-Seq fitted mean relative fluorescence mCherry/BFP without ligand (log10 relative fluorescence); ligand: hypoxanthine (xanthine aptamer); higher = higher reporter protein expression; settings: HEK293T, ligand present: no
Method in brief: (§1)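 Reporter cells were enriched HEK293T libraries transduced by lentivirus with mCherry behind the ribozyme switch and with an EF1α-BFP marker. Following 48 h with or without ligand, they were sorted into 6 mCherry/BFP bins, and bin genomic DNA was PCR-amplified, barcoded and MiSeq-sequenced. Fluorescence was computed as the fitted normal mean of the bin counts. The fit used log10(mCherry/BFP), with scaling to five spiked-in control ribozymes.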

hypoxanthine [2] = variants of: B1; assay: normalized RNA/DNA level with ligand (relative to sTRSVctl = 100) (log10 (% of sTRSVctl)); ligand: hypoxanthine (xanthine aptamer); higher = less ribozyme self-cleavage, higher mRNA level; settings: ligand concentration (+) RNA-Seq: 5 mM, HEK293T, reporter: mCherry (pCS4076), ligand present: yes
Procedure: (§2)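 Hammerhead (sTRSV) ribozyme switch libraries with a ligand aptamer grafted on stem I and a randomized N4-6 loop II, cloned into the 3' UTR of mCherry and transiently transfected into HEK293T cells; RNA-Seq 72 h post transfection with ligand added 1 h before transfection; RNA read count / plasmid DNA read count normalized to the non-cleaving sTRSVctl (x100), log10; sequences with >100 DNA reads. FACS-Seq: lentiviral library sorted into 6 bins after 48 h ligand, log-normal fit mean of mCherry/BFP scaled to controls. Printed sequences are partial switch sequences.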

hypoxanthine [3] = variants of: B1; assay: normalized RNA/DNA level without ligand (relative to sTRSVctl = 100) (log10 (% of sTRSVctl)); ligand: hypoxanthine (xanthine aptamer); higher = less ribozyme self-cleavage, higher mRNA level; settings: HEK293T, reporter: mCherry (pCS4076), ligand present: no
Procedure: as §2

hypoxanthine [4] = variants of: B1; assay: FACS-Seq fitted mean relative fluorescence mCherry/BFP with ligand (log10 relative fluorescence); ligand: hypoxanthine (xanthine aptamer); ligand concentration (+) FACS-Seq: 5 mM; higher = higher reporter protein expression; settings: HEK293T, ligand present: yes
Method in brief: as §1

Variant | FACS-Seq fitted mean (log10) (hypoxanthine [1]) | normalized RNA/DNA level with ligand (log10) (hypoxanthine [2]) | normalized RNA/DNA level without ligand (log10) (hypoxanthine [3]) | FACS-Seq fitted mean (log10) (hypoxanthine [4])
UACGAG | 0.145 ± 0.0054 | 1.88 ± 0.069 | 1.4 ± 0.058 | 0.382 ± 0.014
UACGAA | 0.0406 ± 0.024 | 1.9122 ± 0.00026 | 1.69 ± 0.013 | 0.191 ± 0.012
UACGAU | 0.105 ± 0.066 | 1.92 ± 0.041 | 1.715 ± 0.015 | -0.543 ± 0.12
GACUCG | 0.331 ± 0.066 | 1.86 ± 0.051 | 1.63 ± 0.083 | 0.567 ± 0.081
GACCUG | 0.408 ± 0.074 | 1.887 ± 0.0022 | 1.52 ± 0.018 | 0.608 ± 0.095
GACCAG | 0.136 ± 0.033 | 1.865 ± 0.0019 | 1.55 ± 0.073 | 0.531 ± 0.013
GACCAA | 0.126 ± 0.012 | 1.9242 ± 0.00022 | 1.81 ± 0.019 | 0.21 ± 0.049
AACCUG | 0.131 ± 0.046 | 1.81 ± 0.02 | 1.38 ± 0.028 | 0.4422 ± 0.0015
GACAUA | 0.382 ± 0.011 | 1.91 ± 0.027 | 1.79 ± 0.027 | 0.373 ± 0.037
GACAUG | 0.405 ± 0.11 | 1.81 ± 0.032 | 1.4 ± 0.0058 | 0.472 ± 0.081
UAGAGU | 0.11 ± 0.061 | 1.74 ± 0.09 | 1.21 ± 0.04 | 0.536 ± 0.099
UAGAGA | -0.0593 ± 0.041 | 1.9 ± 0.051 | 1.39 ± 0.036 | 0.431 ± 0.029
UAGAGG | 0.0918 ± 0.042 | 1.75 ± 0.038 | 1.21 ± 0.03 | 0.552 ± 0.011
GAGAUG | 0.1129 ± 0.00042 | 1.65 ± 0.064 | 1.14 ± 0.05 | 0.707 ± 0.033
GAGAUA | 0.345 ± 0.013 | 1.869 ± 0.015 | 1.65 ± 0.0036 | 0.362 ± 0.087
GAGAUC | 0.247 ± 0.015 | 1.94 ± 0.021 | 1.83 ± 0.053 | 0.211 ± 0.004
CAGAGA | 0.37782 ± 0.00012 | 1.892 ± 0.0089 | 1.659 ± 0.0052 | 0.696 ± 0.03
CAGAGG | 0.273 ± 0.0028 | 1.813 ± 0.0092 | 1.21 ± 0.06 | 0.702 ± 0.048
UACCAG | 0.0403 ± 0.078 | 1.87 ± 0.015 | 1.589 ± 0.0032 | 0.0509 ± 0.085
UACCAA | -0.105 ± 0.11 | 1.92 ± 0.036 | 1.838 ± 0.011 | -0.235 ± 0.035
UACCGU | 0.0177 ± 0.0044 | 1.95 ± 0.08 | 1.7185 ± 0.00046 | 0.448 ± 0.028
UACCGA | 0.439 ± 0.021 | 1.91 ± 0.041 | 1.75 ± 0.024 | 0.551 ± 0.044
UACCGG | 0.141 ± 0.038 | 1.91 ± 0.0042 | 1.63 ± 0.038 | 0.197 ± 0.15
UACCCC | 0.5672 ± 0.0022 | 1.95 ± 0.062 | 1.9 ± 0.064 | 0.523 ± 0.047

Variant | FACS-Seq fitted mean (log10) (hypoxanthine [1]) | normalized RNA/DNA level with ligand (log10) (hypoxanthine [2]) | normalized RNA/DNA level without ligand (log10) (hypoxanthine [3]) | FACS-Seq fitted mean (log10) (hypoxanthine [4])
UACAUG | -0.317 ± 0.071 | 1.93 ± 0.029 | 1.69 ± 0.018 | 0.0659 ± 0.069
GAGAGC | 0.164 ± 0.036 | 1.8 ± 0.033 | 1.27 ± 0.072 | 0.494 ± 0.031
GAGAGG | 0.00193 ± 0.027 | 1.45 ± 0.017 | 1.01 ± 0.1 | 0.644 ± 0.032
GAGAGA | 0.257 ± 0.028 | 1.81 ± 0.02 | 1.34 ± 0.042 | 0.585 ± 0.043
CAGAAC | 0.442 ± 0.066 | 1.884 ± 0.0072 | 1.73 ± 0.039 | 0.407 ± 0.016
CAGAAA | 0.22 ± 0.05 | 1.874 ± 0.00091 | 1.58 ± 0.062 | 0.32 ± 0.027
UACUAG | 0.177 ± 0.053 | 1.9142 ± 0.0014 | 1.65 ± 0.033 | 0.506 ± 0.038
UACUAA | 0.00308 ± 0.026 | 1.91 ± 0.023 | 1.8 ± 0.025 | 0.206 ± 0.073
GAGAAU | 0.4579 ± 0.0037 | 1.91 ± 0.021 | 1.67 ± 0.023 | 0.611 ± 0.05
GAGAAG | -0.406 ± 0.0075 | 1.55 ± 0.017 | 1.05 ± 0.024 | 0.342 ± 0.037
GAGAAA | 0.546 ± 0.035 | 1.88 ± 0.021 | 1.597 ± 0.015 | 0.651 ± 0.048
GAGAAC | 0.417 ± 0.072 | 1.912 ± 0.0063 | 1.63 ± 0.038 | 0.735 ± 0.033
CACCAC | 0.232 ± 0.012 | 1.92 ± 0.056 | 1.81 ± 0.063 | 0.406 ± 0.036
GACUUG | 0.475 ± 0.072 | 1.84 ± 0.054 | 1.5 ± 0.034 | 0.228 ± 0.36
AACCCA | 0.217 ± 0.063 | 1.92 ± 0.022 | 1.85 ± 0.042 | 0.245 ± 0.0026
AACCCG | 0.577 ± 0.077 | 1.84 ± 0.088 | 1.378 ± 0.013 | 0.751 ± 0.043
GACGCU | 0.261 ± 0.12 | 1.94 ± 0.037 | 1.893 ± 0.0077 | 0.508 ± 0.048
GACAGU | -0.268 ± 0.11 | 1.926 ± 0.0025 | 1.8 ± 0.045 | 0.146 ± 0.025
GACAGG | -0.206 ± 0.16 | 1.765 ± 0.012 | 1.27 ± 0.033 | -0.557 ± 0.034
AACUAA | 0.536 ± 0.12 | 1.937 ± 0.014 | 1.81 ± 0.035 | 0.663 ± 0.043
AACUAG | 0.232 ± 0.032 | 1.819 ± 0.011 | 1.473 ± 0.0054 | 0.521 ± 0.045
AACUAC | 0.621 ± 0.011 | 1.922 ± 0.014 | 1.841 ± 0.0075 | 0.653 ± 0.028
AACUAU | 0.469 ± 0.04 | 1.9 ± 0.041 | 1.787 ± 0.012 | 0.51 ± 0.053
AAGAUG | 0.0294 ± 0.013 | 1.64 ± 0.087 | 1.09 ± 0.045 | 0.578 ± 0.025

Variant | FACS-Seq fitted mean (log10) (hypoxanthine [1]) | normalized RNA/DNA level with ligand (log10) (hypoxanthine [2]) | normalized RNA/DNA level without ligand (log10) (hypoxanthine [3]) | FACS-Seq fitted mean (log10) (hypoxanthine [4])
AAGAUU | -0.294 ± 0.047 | 1.9382 ± 0.00039 | 1.805 ± 0.016 | 0.11 ± 0.042
AAGAUC | 0.614 ± 0.031 | 1.973 ± 0.0076 | 1.92 ± 0.043 | 0.556 ± 0.033
AAGAUA | 0.32 ± 0.064 | 1.89 ± 0.031 | 1.63 ± 0.022 | 0.339 ± 0.1
CACGAA | 0.226 ± 0.02 | 1.87 ± 0.02 | 1.72 ± 0.037 | 0.363 ± 0.022
AAGAAA | 0.272 ± 0.028 | 1.91 ± 0.029 | 1.605 ± 0.01 | 0.598 ± 0.015
AAGAAG | -0.35 ± 0.015 | 1.545 ± 0.013 | 1.04 ± 0.028 | 0.459 ± 0.029
AAGAAU | 0.521 ± 0.035 | 1.906 ± 0.0038 | 1.65 ± 0.018 | 0.5797 ± 0.0012
AACCAG | 0.356 ± 0.091 | 1.82 ± 0.027 | 1.41 ± 0.049 | 0.678 ± 0.017
AACCAC | 0.0153 ± 0.085 | 1.91 ± 0.036 | 1.78 ± 0.037 | 0.246 ± 0.02
UACUUU | 0.0654 ± 0.07 | 1.97 ± 0.038 | 1.921 ± 0.0072 | 0.288 ± 0.041
UAGAAC | 0.437 ± 0.028 | 1.93 ± 0.031 | 1.809 ± 0.014 | 0.578 ± 0.076
UAGAAU | 0.3304 ± 0.003 | 1.9 ± 0.023 | 1.72 ± 0.03 | 0.6203 ± 0.0037
UAGAAG | 0.421 ± 0.0051 | 1.858 ± 0.0066 | 1.47 ± 0.022 | 0.577 ± 0.057
UAGAAA | 0.355 ± 0.024 | 1.88 ± 0.052 | 1.702 ± 0.013 | 0.469 ± 0.053
UAGAUG | -0.00441 ± 0.085 | 1.9 ± 0.081 | 1.615 ± 0.0023 | 0.344 ± 0.03
GAGCAG | -0.00628 ± 0.045 | 1.67 ± 0.027 | 1.19 ± 0.024 | 0.5054 ± 0.0013
GAGCAC | 0.773 ± 0.029 | 1.89 ± 0.037 | 1.71 ± 0.05 | 0.682 ± 0.074
GAGCAA | 0.362 ± 0.027 | 1.892 ± 0.013 | 1.581 ± 0.0039 | 0.596 ± 0.09
AACUCG | 0.382 ± 0.056 | 1.92 ± 0.033 | 1.582 ± 0.0054 | 0.644 ± 0.022
UACCUA | 0.48 ± 0.072 | 1.93 ± 0.0042 | 1.921 ± 0.019 | 0.369 ± 0.023
UACCUG | -0.0249 ± 0.053 | 1.93 ± 0.024 | 1.635 ± 0.012 | 0.0984 ± 0.069
AACUGA | -0.0809 ± 0.032 | 1.94 ± 0.035 | 1.716 ± 0.012 | -0.204 ± 0.016
AACUGC | 0.74 ± 0.033 | 1.91 ± 0.053 | 1.87 ± 0.025 | 0.697 ± 0.048

From the supplement of paper PMC6757056
